The record followed here is US20180282719A1 (published 2018).

Positions count from the first letter of the chain named. Like-named read-outs stand apart in the source and are kept apart here.

For test [1], the target named is T1, recombinant soluble human IL-6 receptor (SR344) (human, UniProt P08887 20-344, biotinylated (sites not given) where immobilized via streptavidin or used in phage ELISA).
T1 construct: also called soluble IL-6 receptor; membrane-type IL-6 receptor (when biotinylated and immobilized on the chip)
T1 sequence (looked up): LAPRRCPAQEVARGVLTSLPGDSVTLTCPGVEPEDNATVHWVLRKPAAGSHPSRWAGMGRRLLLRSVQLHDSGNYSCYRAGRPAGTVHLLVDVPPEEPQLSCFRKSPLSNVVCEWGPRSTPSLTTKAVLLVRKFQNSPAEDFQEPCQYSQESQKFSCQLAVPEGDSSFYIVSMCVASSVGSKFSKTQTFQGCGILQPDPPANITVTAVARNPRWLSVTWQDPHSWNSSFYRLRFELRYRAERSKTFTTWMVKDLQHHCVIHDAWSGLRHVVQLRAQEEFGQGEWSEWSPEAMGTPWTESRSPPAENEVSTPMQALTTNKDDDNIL
Description: SPR Biacore T100, antibody captured by anti-IgG gamma chain F(ab)2, SR344 analyte, pH 7.4, 37 C. As to the method:
(§1) Kinetic analyses of antigen-antibody reactions at pH 7.4 were carried out on the four types of antibodies, i.e., the humanized PM1 antibody (wild type: WT), and […], H3pI/L73-IgG1, Fv2-IgG1, and Fv4-IgG1 constructed in Examples 2 and 10, by using a Biacore T100™ surface plasmon resonance system (GE Healthcare) (buffer: 10 mM MES (pH 7.4), 150 mM NaCl, 0.05% TWEEN® 20 (polyoxyethelene sorbitan monolaurate)). Each antibody was bound on a sensor chip on which an anti-IgG γ chain specific F(ab)₂ (Pierce) was immobilized by amine coupling, and then, SR344 adjusted to a concentration of 9.8 to 40 nM was injected thereto as an analyte. The association to and dissociation from SR344 were observed on a real-time basis for the pH-dependent-binding clones. All the measurements were carried out at 37° C. Association rate constants kₐ (1/Ms) and dissociation rate constants kd (1/s) were calculated using Biacore T100™ Evaluation Software (GE Healthcare), and dissociation constants KD (M) were calculated on the basis of those values (Table 7).
(§2) The association to and dissociation from SR344 were observed on a real-time basis using the same method as Example 10 for the eleven types of antibodies, humanized PM1 antibody (wild type: WT) and H3pI/L73-IgG1, Fv1-M71, Fv1-M73, Fv2-IgG1, Fv3-M71, Fv3-M73, Fv4-IgG1, Fv4-IgG2, Fv4-M58, and Fv4-M73, constructed as described above. The association rate constants kₐ (1/Ms) and dissociation rate constants kd. (1/s) were calculated by analysis in the same manner, and the dissociation constants KD (M) were calculated on the basis of those values (Table 11).

The target of test [2] is T1, recombinant soluble human IL-6 receptor …. Described as above. As to the method: as §1, §2
This is another data set of the same source.

Test [3] shares this target. Description: SPR Biacore T100, biotinylated SR344 on streptavidin chip (model of membrane-type IL-6 receptor), antibody as analyte, bound at pH 7.4, dissociation at pH 5.8, 37 C. As to the method:
(§3) Binding to the membrane-type IL-6 receptor was evaluated by evaluating binding to the IL-6 receptor immobilized on a sensor chip. SR344 was biotinylated in accordance with a method known among persons with ordinary skill in the art, and the biotinylated SR344 was immobilized on the sensor chip via streptavidin using the affinity between streptavidin and biotin. All the measurements were carried out at 37° C. The mobile phase buffer was 10 mM MES (pH 5.8), 150 mM NaCl and 0.05% TWEEN® 20 (polyoxyethelene sorbitan monolaurate).
(§4) The pH-dependently-binding clones were injected under the condition of pH 7.4 to allow them to bind to SR344, and then, the pH-dependent dissociation of each clone at the pH of the mobile phase, pH 5.8, was observed. The results are shown in FIG. 21 (results for Fv1-M71, Fv1-M73, Fv3-M71, and Fv3-M73 are shown in FIG. 21, while results for other clones are shown in FIGS. 17 and 19). Analyses were carried out in the same manner as in Example 10 and the pH dependencies of the dissociation rate constants of all of the eleven types of clones are shown in Table 12.

For test [4] the target is unchanged. Description: SPR Biacore T100, biotinylated SR344 on streptavidin chip (model of membrane-type IL-6 receptor), antibody as analyte, 37 C. As to the method: as §3, §4
Test [5] shares this target. The test is described as follows: SPR Biacore T100, biotinylated SR344 on streptavidin chip (model of membrane-type IL-6 receptor), antibody as analyte, bound at pH 7.4, dissociation at pH 7.4, 37 C. As to the method:
as §3, §4

Test [6] shares this target. Description: SPR Biacore T100, biotinylated SR344 on streptavidin chip (model of membrane-type IL-6 receptor), antibody as analyte, 37 C. As to the method:
as §3, §4
This is another data set of the same source.

The target is the same in test [7]. Description: SPR Biacore T100, biotinylated SR344 on streptavidin chip (model of membrane-type IL-6 receptor), antibody as analyte, bound at pH 7.4, dissociation at pH 7.4, 37 C. As to the method: as §3, §4
The source holds these as a separate data set.

Test [8] shares this target. The test is described as follows: SPR Biacore T100, biotinylated SR344 on streptavidin chip (model of membrane-type IL-6 receptor), antibody as analyte, bound at pH 7.4, dissociation at pH 5.8, 37 C. As to the method: as §3, §4
The source holds these as a separate data set.

Test [9] shares this target. The test is described as follows: SPR Biacore T100, biotinylated SR344 on streptavidin chip (model of membrane-type IL-6 receptor), antibody 0.25 ug/mL as analyte, bound at pH 7.4, dissociation at pH 5.8, 37 C. As to the method:
as §3, §4

For test [10] the target is unchanged. Description: SPR Biacore T100, biotinylated SR344 on streptavidin chip (model of membrane-type IL-6 receptor), antibody 0.25 ug/mL as analyte, bound at pH 7.4, dissociation at pH 7.4, 37 C.
Test [11] has the same target. The test is described as follows: SPR Biacore T100, biotinylated SR344 on streptavidin chip (model of membrane-type IL-6 receptor), antibody 0.25 ug/mL as analyte, 37 C. As to the method:
as §3, §4

Test [12] has the same target. Description: SPR Biacore T100, antibody captured by anti-IgG gamma chain F(ab)2, SR344 analyte, pH 7.4, 37 C. As to the method: as §1
The source holds these as a separate data set.

B1: Fv4-M58 (antibody)
heavy: QVQLQESGPGLVKPSETLSLTCAVSGHSISHDHAWSWVRQPPGEGLEWIGFISYSGITNYNPSLQGRVTISRDNSKNTLYLQMNSLRAEDTAVYYCARSLARTTAMDYWGEGTLVTVSSASTKGPSVFPLAPSSKSTSGGTAALGCLVKDYFPEPVTVSWNSGALTSGVHTFPAVLQSSGLYSLSSVVTVPSSNFGTQTYTCNVDHKPSNTKVDKTVERKSCVECPPCPAPPVAGPSVFLFPPKPKDTLMISRTPEVTCVVVDVSQEDPEVQFNWYVDGVEVHNAKTKPREEQFNSTFRVVSVLTVVHQDWLNGKEYKCKVSNKGLPAPIEKTISKTKGQPREPQVYTLPPSQEEMTKNQVSLTCLVKGFYPSDIAVEWESNGQPENNYKTTPPMLDSDGSFFLYSKLTVDKSRWQEGNVFSCSVMHEALHNHYTQKSLSLSP
light: DIQMTQSPSSLSASVGDSVTITCQASTDISSHLNWYQQKPGKAPELLIYYGSHLLSGVPSRFSGSGSGTDFTFTISSLEAEDAATYYCGQGNRLPYTFGQGTKVEIERTVAAPSVFIFPPSDEQLKSGTASVVCLLNNFYPREAKVQWKVDNALQSGNSQESVTEQDSKDSTYSLSSTLTLSKADYEKHKVYACEVTHQGLSSPVTKSFNRGEC
notes: VH3-M58 / VL3-CK
On to B1, for which the Kd in test [1] and in test [2] was 1.4 nM each time. For the same molecule, the koff is 0.0011 s⁻¹ in [1]; 0.0011 s⁻¹ in test [2]; 0.0095 s⁻¹ in test [3]; 0.00054 s⁻¹ in test [5]; 0.00054 s⁻¹ in test [7]; 0.0095 s⁻¹ in test [8]. The kon in test [1] and in test [2] was 830000 M⁻¹ s⁻¹ each time. For the same molecule, the “kd (pH 5.8)/kd (pH 7.4)” value in [4] and in [6] was 17.6 each time.

B2: Fv4-IgG2 (antibody)
heavy: B1 heavy with S133C, K135R, G139E, G140S, S221C, Q266H, Q353R, E417Q
light: B1 light
notes: VH3-IgG2deltaGK / VL3-CK; also called Fv4-IgG2deltaGK
On to B2, for which the Kd in test [1] and in test [2] was 1.3 nM throughout. Further, the koff in [1] turned out to be 0.0012 s⁻¹; in test [2], 0.0012 s⁻¹; in test [3] it was 0.018 s⁻¹; in test [5], 0.001 s⁻¹; in test [7] it was 0.001 s⁻¹; in test [8] it was 0.018 s⁻¹. The kon in test [1] and in test [2] was 960000 M⁻¹ s⁻¹ throughout. In addition, the “kd (pH 5.8)/kd (pH 7.4)” value in [4] and in test [6] was 17 in each case.

B3: Fv4-M73 (antibody)
heavy: B1 heavy with N432A
light: B1 light
notes: VH3-M73 / VL3-CK
Take B3: the Kd in [1] and in test [2] was 1.4 nM each time. In addition, the koff in [1] amounted to 0.001 s⁻¹; in test [2], 0.001 s⁻¹; in [3], 0.0051 s⁻¹; in test [5] it was 0.00051 s⁻¹; in [7], 0.00051 s⁻¹; in test [8], 0.0051 s⁻¹. The on-rate constant (kon) in test [1] and in test [2] was 750000 M⁻¹ s⁻¹ each time. In addition, the “kd (pH 5.8)/kd (pH 7.4)” value in [4] and in test [6] was 10.1 throughout.

B4: Fv2-IgG1 (antibody, V domains shown)
VH: QVQLQESGPGLVKPSETLSLTCAVSGYSISHDHAWSWVRQPPGEGLEWIGHISYSGITNYNPHLQDRVTISRDTSKNQFSLKLSSVTAADTAAYYCARFLARITAHDHWGEGTLVTVSS
VL: DIQMTQSPSSLSASVGDSVTITCQASQDISSHLNWYQQKPGKAPELLIYYGSHLHSGVPSRFSGSGSGTDFTFTISSLEAEDAATYYCGQGNRLPYTFGQGTKVEIE
notes: VH1-IgG1 as H chain and L82 as L chain
B4: the koff in [9] turned out to be 0.0024 s⁻¹; in test [1], 0.00077 s⁻¹; in [10] it was 0.00034 s⁻¹; in [5], 0.00034 s⁻¹; in test [12], 0.00077 s⁻¹; in test [8] it was 0.0024 s⁻¹. For the same molecule, the Kd in [1] and in test [12] was 2 nM in each case. Further, the kon in test [1] and in [12] was 390000 M⁻¹ s⁻¹ throughout. The “kd (pH 5.8)/kd (pH 7.4)” value in test [11] and in [6] was 7.18 throughout.
